The data set is described as follows: label from the status in PepcDB records.
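Also: failed if final PepcDB status was selected cloned or expressed and not failed if soluble or beyond.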

“MQVLHVCSEMFPLLKTGGLADVIGALPAAQIADGVDARVLLPAFPDIRRGVTDAQVVSRRDTFAGHITLLFGHYNGVGIYLIDAPHLYDRPGSPYHDTNLFAYTDNVLRFALLGWVGAEMASGLDPFWRPDVVHAHDWHAGLAPAYLAARGRPAKSVFTVHNLAYQGMFYAHHMNDIQLPWSFFNIHGLEFNGQISFLKAGLYYADHITAVSPTYAREITEPQFAYGMEGLLQQRHREGRLSGVLNGVDEKIWSPETDLLLASRYTRDTLEDKAENKRQLQIAMGLKVDDKVPLFAVVSRLTSQKGLDLVLEALPGLLEQGGQLALLGAGDPVLQEGFLAAAAEYPGQVGVQIGYHEAFSHRIMGGADVILVPSRFEPCGLTQLYGLKYGTLPLVRRTGGLADTVSDCSLENLADGVASGFVFEDSNAWSLLRAIRRAFVLWSRPSLWRFVQRQAMAMDFSWQVAAKSYRELYYRLK”: the protein production result was “failed”.

Consider “MQVQHHNAHLSRSVQAQVARLVLQANLAYGESNSNGLSYIQRLKARNECREYLNQALALEADHAAALGLLGRVEMDDGQLEKAHALFNASLNRQPAQAQQYCNLGYWALKSERPALAEEYFLQALECDRQSAAAFCGVAHAKRLQGQFDVAYLHYRKLLQSGSEWDSVYSGMLSCAQHLQVHKADSDLALDAIALLRQEGLPHQEIGHFVGAIIQQQYDLDNPNAEIFLDAAAEDELLILALQKTLMPNAAVEELVVLLRRAIMAEVAQTASLRDELQPLCLAIAEYADRTGFALAAEDDEERLAATINESIMAQFAVGEPQEALIGSLMISAMYGALFHQNFAVQLGQWNLVDWPLAMQPIMAASYYNRAEEEAIKQNFDEKAEELCLEKTDVPQAWPAWSQLAYRTETSLKAVMAQELGLNTDNLPATLRIMVCGAQSGQRAMELAQYLNDVEVIAVDESLANIAKGTRMAQSLNMDNIVFWPWSIAQRFVADGHKVHWVEVGRLPSPAMTELSLAALINSASIAGAVVHMHTSMAEQTAGDKQIRRLIAEHQLQPTRTSLRQLRRMVLANKQDAVWSSLLQDDDFYSLGGCRDRWFRPQDANQLKELLALVSNEVEWKLVKARDEDGHSLATGPVQRQIQAEALGSEVQSLMGQNLSVYFQRRR”, for which the protein production entry is “failed”.

For the sequence “MQVSVETTQGLGRRVTITIAADSIETAVKSELVNVAKKVRIDGFRKGKVPMNIVAQRYGASVRQDVLGDLMSRNFIDAIIKEKINPAGAPTYVPGEYKLGEDFTYSVEFEVYPEVELQGLEAIEVEKPIVEVTDADVDGMLDTLRKQQATWKEKDGAVEAEDRVTIDFTGSVDGEEFEGGKASDFVLAMGQGRMIPGFEDGIKGHKAGEEFTIDVTFPEEYHAENLKGKAAKFAINLKKVEERELPELTAEFIKRFGVEDGSVEGLRAEVRKNMERELKSAIRNRVKSQAIEGLVKANDIDVPAALIDSEIDVLRRQAAQRFGGNEKQALELPRELFEEQAKRRVVVGLLLGEVIRTNELKADEERVKGLIEEMASAYEDPKEVIEFYSKNKELMDNMRNVALEEQAVEAVLAKAKVTEKETTFNELMNQQA”, the protein production result is given as “not failed”.

Regarding “MQWQESLPWTPEARQKLKNIPYFARVQARQRIEQLARQADLDEVTVDLVEQARLEFGQ”, the protein production result is “failed”.

On to “MQWRNTSSRYGVFSLFLHWGSALVVFGLFGLGLWMRELSYYDPWYHPAPALHKSIGILLAIALLVRIVWRFVSPPPPAPANHGPLTRVASKLGHLALYGLLLAVIVAGYLISTADGEPISVFGWFSVPATLSGLPDQADVAGEIHLYLAWALVVFAVLHALAALKHHFVDRDPTLKRMLGRSSNDQQPR”, for which the protein production entry was “not failed”.

On to “MQYLSILEALGGLGVFILGMKTMSEGLQKIAGDRFRRHLERIAGNRLTAALLGSTLSSLLQSSSAACIITVGFINAGLISLYQALGILLGTGIGTTLAVQFIAFKISSFALPAVFVGVCLRCFLRRRRWVNAGELILGAGLLFLGLRIMESNLQPLQEYAIVFTHQDMFVSKRIAAVLFGATLTLLVQSGSTAIAVIMALAGSSLVSFETGAAMVIGELLGTSVITAFASIGGTLEAKRTVFFYFMVNLLAVVVVMLVFPSYLSFVTYISPEDIASSAGISRVLANTHTLFSIMSAVIFLPLIGFFARTAPRIIPGSERASSVEARTVFIDPRVLNTPPIALLQARSELRRMAGISLTMYSEMVEQFFRYDARKAVGIRQKENAVDILQRDLTDFLVSLSRRELAPEASMEIPVMLQLIGELEHVADQSEAVLDYLRRKKEEKLLFSNAAMTEIRHLARTVEKLVDLAVETMDNPPPDAVEQGRSLRDDVGRQREAMLDGHIKRLSAGKCSVRAGIIYADMITAFVKIADSSVTIIETRKEFT”, for which the protein production result was “failed”.

Take “MRAAALAGAAGVVLCLLGGIGGAVAALSLWLAQPAFALAVSWARGTRAVPGQPRAIAQALPPLLAIWGVGLLALAALISWPLTALRDSGSLAAALALSVAVSAALLGLWRTWPLWGEVERDGGALAPRWQALAAQELHAWRGLLAAALVLAMCTLAVVLAWPGWLSGGLRWGLAVAACVLLPVAHLLLQRTPAPMRSDVPQTRQAADFFSEAAAEPRPLEPVAQHQLVPELFEAARSGRVDRALQLLEAGADPQALPLPEWRDQRSLPALAAVLPDLRLLRELIVRRVDVNQPHRGMTPLLAATRDSWHGRPDAVMTLLANGADPRASDNDGNTPLHHAVRSSDPGVAALLHDAAAELDALNNEGHSPLAMACQVGNWRLAKFLLERGAQSEPEGGAPVLLAAAGTEEDDPAGVQLLLKHKARVDARDRQRRSALHEAALAGHGDIVEALLSAGANLEARDLLGRTPWLDAARQARSAVLERLVARKADVLAIDGDGRNALMLACAADNVSPALIRRLLDLQVPADSVDAHGRRAVDVAAEAGRWAIVQLLDPAYPLPAAVSDAQGDTPGAAVLPDRPPLVLLREGLQLGQRDGLVALARLCAPDELGGLLHDAHLALNAEAVDWLLRHGADAEVRDACGDVPMFALLSRGVEAVPALQALLRHGVSPAGAGGLTRLLSACVQHDAASRGLEQFALELLERGADPFAPSAAGDPPLSLAVRLGWLRLQHWLLEHGVDREARDSHGMTALHLATALGRDASLKLLVKQGASPEARAADGQTPLGVALSIGRRDLADWLDWRIWSLPRRTLREADVPAAAMTGDTDAVRRLIDLGLAVDAVDAQGCTALLRAAGGGHLGVVTHLLGRGADPQRAANSGATPLSAAVSMRQTEIVAALLHAGAQIEHRLPGGVTVLMLACALGLPDIVARLLTAAADVHATDNQGLAPLHCAALYGFTARDKNRLLALLDTLLLAGADPDYLAGGRVSPLLLLLGARAEPGTSCDEQVVLAGVERLLDEDVSLDVADQRGFGPLHLAALHGLPLLVQRLLRAGADADRRDALNRTPREIAIMRGFIDVAGQFEPALPGVSSMARFLREGR”: the protein production entry was “failed”.

Consider “MRAARLIKMVLLLQSRPTMTAAELARELEVSERTVTRDAQALSEAGVPVYAERGRAGGYRLVGGYRTRLTGLARGEAEALFLSGVPGALREMGLEDAASAARLKVSAALLPSLRDASRTAAQRFHLDAPNWFREPETPELLPAVADAVWDDRRVAARYRRGTDEVVRELEPYGLVLKAGVWYLCARVAGTAGDGPFRVYRIDRFTAVEAGEERFVRDDGFDLPAFWAERAEQFARSILRAEVVVRLSERGVRGLPYAVDALSAREALEAAGAPDADGWVTVALPVESEEVAHAQLRGLGPEVEVLAPAALRERFAREARRLAELYGG”, for which the protein production entry is listed as “failed”.

Regarding “MRAAVRTRIVATYLAVAALWGSTWMAIRIGLEDLPPLRFAGVRMAIAALVLAPFALRGGAWREVVGPARAQLALVAVLQIALPYGLMFVAQQWVPSGLAAVLFASFPVWIALLARALVPGETLTPARVASALLGIAGVAVLQLPHLGDLEGSGRLLLGGALVVLSSMIVALANVLVRRHLAAVSPLAMTAGQTAVGAVLLLAAAALLEQGRPAAFTASAVAALAWLAVFGTALTYVGLYWLVPRVPMAAIGALPLLDTSVAVTLGALVLHEPVGWNLALGGGMVLAAAALTIPRRR”, the protein production result was “failed”.

As for “MRACAPIFRLLGGGVEHLGKSGRPGSGGRWWPLCGWLALAALVPAVQAEEGEPAPVEASAAARLVDVNEYFVRGNTVLDARAIEEAVYPFLGPQKALADIEGARDALQKVYQERGYQSVFVELPEQKVEDGIVYLQVSETKVGRVRVVGAKHYSPVEIRDQVPALKEGEVPDFATVQSQLAGLNRGAGRQVMPLVREGQRPGTMDVDLQVEDQNPWHASVGLNNDYSADTEKLRTVVNVGYDNLWQLGHSISLTYFTAPQDTDNAKVWSGSYTAPLSDRWALQFSGYQSDSNIATIGGSNVLGKGHSYGVSAIYTLPAAGNWANSLSVGVDFKDFEEEMRFGRSSDQIPLKYAPMTFGYNGYRYSEKAQLGLGLNLIVGTRRFFGYGSDAEEFHYKRDEASASFSVLKGDLNFTYTFANDWQSASKAAFQLASGPLVSNEQYSAGGATSVRGYLAAERTGDEGYLFSQELRTPSLAKFLGSYVQEWRFYAFAEGAHLSLHDPLPEQEDEYSLASVGLGTRASLSKWLSGSLDWGYPLKDGPNTQKYDPRLHFSVQATF”, the protein production entry is given as “failed”.

With “MRADRSMLGPSLHRDQIMAMNRVQFQAGLSLPAFLKRYGNAQQCEQALEISRWPQGFVCPHCAATAHSRFQRHGTTYWQCTACYRQTSLRSGTVMDNSKLPLRTWLLGMYLLGQSKTNLSALELMRHLGVSYPTAWPMKHKLMQAMTQREANRKLGGIVQLDDAYLGGERNGGKAGRGSENKRLFVIAVETTEDGRPLRAVMDPVPGFTKAALSEWIGQRLHPGADVYSDGLGAFRALEAEHAHTVIEGSGRSRCEAENARWVNVVLSNLKRSLDGAYHAFKYAQRYLAETMWRFNRRFDLTRLVPSLLAAAAASKPWSERALRDVTMFTAESAC”, the protein production result is recorded as “failed”.

For “MRALIRYEDVPSKLWTLPKMTDFWGIGKRTEKRLNKLGISSIKELTNADPLLLKQKLGTIGLQHFFHANGIDESNVRLEHHHHHH”, the protein production result was “failed”.

On to “MRALIVSNPNSTTQSAEMFRHVIPTLRAVPGLELRAQMTHYAGHARHMCENLTVEDYDVVIAVGGDGTVNEVINGLLGDLPSAPPALAVIPTGSANVFARALGLPADPAQAAEVLADALHKGSTRRINLGKWGS”, for which the protein production result is given as “failed”.

Regarding “MRAMVSRLNSAVSRLFLFAFVAVMPTLVQAQSVNEGQSVRALTTDSSGALLVLRQSGLFALDSQNTTEIPLPPSDSGAQPRSMAKGGDESLYLAGPGLGIWRYDEASKRWQSLNDTLPDLGVTAIAAHATQPDTLYAYLGDGGMFRSRDDGAEWVKVDNGPREPVQAFLHSDMPGSMESGWLFAGTTRGVARSMDCFCFWGDAGELRGTVSAIDYDPWAPENVYAVIEGELHRSSDGGETWAGLEIPQAVTALTFSPTERLVVGTENGELLSQNASGEWVPVYE”, the protein production entry was “failed”.

For the sequence “MRATACWFVSGLVTFKSENKTRRLVSATHNSRPSMSRVRSWILVVGVLVGAVGGCAEPQDGRGPATADSIAATAPGTDVVGAPLDASGDTLRMGRPTPVTTRPGYDNQPAFLPDGSGLVWTAIHDGQADVYRKIEDEGGPAPVTDTPESEFSPTPRPGGALTLVRVEADGRQRLWRYRADGTPDAPVLPDADSVGYHAWLDSSRVALFVLGAPPTLHVANVKSGTDTVVARRIGRSLQSVPGRADVSFVQVGPDSSVAIHRLDGASLTTRRLTEAPTNAPTGDHAWTPGGHLLMTTEDSLVAWRRGRADWRPVAALDTMDVSRLAVSPSGDRLAMVAAE”, the protein production result is “failed”.

In the case of “MRAVIPYKKAGAKSRLSPVLSLQEREEFVELMLNQVISSLKGAGIEQVDILSPSVYGLEEMTEARVLLDEKDLNEALNRYLKEAEEPVLIVMADLPLLSPEHIKEISSTEKDVCIVPGKGGGTNALFIKNPSKYRVKYYGSSFLTHCSIATDSGQDFEIYDSFMAGTDIDEPEDLVELLIHGKGAAKDYIESKFRLEVKKG”, the protein production entry was “failed”.

For “MRDATYPQLWAAVRAARKAGRTLESVKPAADQFQVKHNGDIVTEADRTVEETILAELSGQFPVHTVVSEESAPEFTTKPRWIIDPIDGTTNFLNGIPHYSISIAFEGAGEPDVGIVYHVPSETMYTAIEGGGAYANGQPLSLSATTELSEALIVTGFDTASMQAQEYDHFRTILNVTQGVRRFGSAAGELAMVAAGQFDAFFERQLSVWDTAAGVKIVEEAGGEVTRIKALDGKNSEMVLASNEAIHQDLVALVSAGTVPKMDGQ”, the protein production entry is recorded as “failed”.

Source of the values: a protein production outcome set (Wang et al. 2014).
